Values of other authors as cited in paper PMC4452855.

Biological target: IFN-λ1 (Homo sapiens) (UniProt Q8IU54)
Chain of UniProt Q8IU54 (Q8IU54 20-200): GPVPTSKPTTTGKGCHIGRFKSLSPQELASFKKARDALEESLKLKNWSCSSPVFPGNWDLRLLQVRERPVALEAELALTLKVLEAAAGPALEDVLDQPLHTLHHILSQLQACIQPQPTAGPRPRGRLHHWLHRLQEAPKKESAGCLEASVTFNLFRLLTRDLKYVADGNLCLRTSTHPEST

Kd: 0.073 µM
Substance: sIFN-λR1 short splice variant (from UniProt Q8IU57)
